Patent publication US7186551B1, “3′-phosphoadenosine -5′-phosphosulfate synthetase 2 (PAPSS2) sequence variants” (Mayo Foundation for Medical Education and Research, priority 2001, dated 2007)
Where “and” joins values, the source holds several entries; their conditions need not be identical. Equal values may be shown once.

Legend:
Assay type in all cases: biochemical, human
PAPSS2 [1] = experiment: PAPSS2 enzyme activity, coupled radiochemical assay (PAPS generation then SULT1E1-catalyzed sulfation of [3H]estradiol) with COS-1 expressed recombinant allozymes; conditions: for % WT activity / decrease in enzyme activity compared with the wild type enzyme: His-tagged recombinant allozyme, loxP-modified p91023(b) vector, COS-1 cells, corrected for transfection efficiency; for activity relative to the reference PAPSS2 (in words): general statement in the description
From the text: Variant alleles of the four non-synonymous PAPSS2 cSNPs observed during the resequencing experiments were created using the QuickChange Site-Directed Mutagenesis Kit (Stratagene, La Jolla, Calif.), with wild type PAPSS2 cDNA in pUni as template. The sequence of the pUni insert was confirmed by completely sequencing both strands before recombination with the loxP-modified p91023(b) acceptor vector. pUni donor vectors that contained wild type and variant PAPSS2 cDNAs, as well as empty pUni, then were combined with the loxP-modified p91023(b) acceptor vector to generate the final expression constructs. In all cases, the fusion junctions of resultant expression constructs were sequenced to confirm that the construct was a dimer consisting of only a single donor and a single acceptor vector. These expression constructs were used to transfect COS-1 cells using TransFast™ reagent (Promega) with a 1:1 charge ratio. pSV-β-galactosidase (Promega) was co-transfected with each construct as an internal control to correct for transfection efficiency. Transfected COS-1 cells were harvested after 48 hours and were homogenized with a Polytron homogenizer (Brinkmann Instruments, Westbury, N.Y.) in 25 mM potassium phosphate buffer, pH 7.8, containing 1 mM dithiothreitol (DTT) and 1 mM EDTA. The homogenates were centrifuged at 15,000 g for 15 minutes, and the resultant supernatant preparations were used to perform enzyme assays, substrate kinetic studies and Western blot analyses. In some cases, aliquots of these cytosol preparations were stored at −80° C. prior to assay.
PAPSS2 Enzyme Activity: PAPSS2 activity was measured with a coupled radiochemical assay. See Xu et al., 2001, supra. Briefly, PAPS is generated from ATP and Na2SO4 in a PAPSS2-catalyzed reaction. The generated PAPS is then used as a substrate for the SULT1E1-catalyzed sulfate conjugation of [2,4,6,7-^3H]estradiol, a radioactively labeled sulfate acceptor substrate. The cell homogenate preparations of recombinant PAPSS2 allozymes described above were used for the activity studies without any further purification. The protein concentration of each recombinant protein preparation was determined by the dye-binding method of Bradford with bovine serum albumin (BSA) as a standard.
PAPS synthesis was catalyzed by recombinant wild-type PAPSS2 or PAPSS2 allozymes (present in the cell homogenate preparations described above) in the presence of 1 mM ATP, 16 mM Na2SO4, 1 mM MgCl2, and 2 mM DTT in 60 mM glycine-NaOH buffer, pH 8.6. Blank samples included the same quantity of COS-1 cytosol protein from cells that had been transfected with empty expression vector to make it possible to correct for endogenous activity. Reaction mixtures were incubated at 37° C. for 20 minutes, and then terminated by heating at 100° C. for 1 minute. An aliquot from this PAPS-generating reaction was then added to a second, coupled reaction containing recombinant human SULT1E1 isolated from COS-1 cells transfected with a SULT1E1 expression construct (see Aksoy et al., Biochem. Biophys. Res. Commun., 200:1621–1629 (1994)). The coupled reaction also included 27 nM [2,4,6,7-^3H]estradiol, 8 mM DTT and 1.25 mM MgCl2 in 10 mM potassium phosphate buffer, pH 6.5. The second, SULT1E1-catalyzed reactions were incubated at 37° C. for 20 minutes, and then terminated by the addition of KOH, followed by organic solvent extraction performed with chloroform. Radioactivity of the sulfate conjugated [2,4,6,7-^3H]estradiol in the aqueous phase after organic solvent extraction was then measured in a liquid scintillation counter. PAPSS activities of recombinant PAPSS2 allozymes were compared after correction for transfection efficiency by measuring the activity of cotransfected P-galactosidase. β-Galactosidase activity in the COS-1 cell preparations was measured with the β-Galactosidase Assay System (Promega) as described by the manufacturer. […]

PAPSS2 [2] = experiment: Substrate kinetic studies of recombinant PAPSS2 with ATP and Na2SO4
Experimental: To estimate apparent Km values of PAPSS2 for the two reaction cosubstrates, a series of ATP (0.125–4 mM) and Na2SO4 (0.125–16 mM) concentrations were tested with the recombinant allozymes. When ATP was the varied substrate, the concentration of Na2SO4 was 4 mM, and when Na2SO4 was the varied substrate, the concentration of ATP was 1 mM. Blanks for each substrate concentration were included by assaying COS-1 cell cytosol after transfection with empty vector.
Data Analysis: Apparent Km values were calculated by using the method of Wilkinson with a computer program written by Cleland. Wilkinson, Biochem. J., 80:324–332 (1961); and Cleland, Nature, 198:[…] (1963). Statistical comparisons of data were performed by ANOVA with the StatView program, version 4.5 (Abacus Concepts, Inc., Berkeley, Calif.). Apparent Km, S50 and Vmax values for the wild-type and variant PAPSS2 allozymes were compared by the use of unpaired Student's t-test.
Alterations in amino acid sequence can alter enzyme substrate affinity and/or catalytic efficiency. Decreased activity of the Val291Met allozyme—without a significant alteration in level of enzyme protein—could have resulted from a change in substrate kinetics. Therefore, a series of ATP (0.125–4 mM) and Na2SO4 (0.125–16 mM) concentrations were used to estimate apparent Km values for recombinant wild type PAPSS2 and for the Val291Met variant allozyme. […] ATP concentrations at which 50% maximal velocity was achieved (S50 values) were 0.70 and 0.95 mM for the wild type and variant allozymes, respectively (Table 4). In both cases, the Hill coefficient was greater than 2, […]. In contrast, substrate kinetics of both allozymes for Na2SO4 conformed to Michaelis-Menten predictions (FIG. 5B). […] In summary, decreased activity for the Val1291Met variant appeared to result from an alteration in substrate kinetics, while decreased activity for the Glu10Lys allozyme, in contrast, resulted primarily from a decrease in the quantity of enzyme protein. Because the Val291Met variant was encoded by a construct that contained the most common PAPSS2 nonsynonymous cSNP, these observations could have functional implications for the sulfate conjugation of both endogenous and/or exogenous compounds.

PAPSS2 [3] = experiment: PAPSS2 enzyme activity, coupled radiochemical assay (PAPS generation then SULT1E1-catalyzed sulfation of [3H]estradiol) with COS-1 expressed recombinant allozymes; conditions: non-His-tagged expression vector p91023(b), COS-1 cells, corrected for transfection efficiency

B1: Val291Met: PAPSS2 polypeptide allozyme having a methionine at amino acid 291 in place of valine (adenine at nucleotide 871) (protein)
chain: MSGIKKQKTENQQKSTNVVYQAHHVSRNKRGQVVGTRGGFRGCTVWLTGLSGAGKTTISFALEEYLVSHAIPCYSLDGDNVRHGLNRNLGFSPGDREENIRRIAEVAKLFADAGLVCITSFISPFAKDRENARKIHESAGLPFFEIFVDAPLNICESRDVKGLYKRARAGEIKGFTGIDSDYEKPETPERVLKTNLSTVSDCVHQVVELLQEQNIVPYTIIKDIHELFVPENKLDHVRAEAETLPSLSITKLDLQWVQVLSEGWATPLKGFMREKEYLQVMHFDTLLDDGMINMSIPIVLPVSAEDKTRLEGCSKFVLAHGGRRVAILRDAEFYEHRKEERCSRVWGTTCTKHPHIKMVMESGDWLVGGDLQVLEKIRWNDGLDQYRLTPLELKQKCKEMNADAVFAFQLRNPVHNGHALLMQDTCRRLLERGYKHPVLLLHPLGGWTKDDDVPLDWRMKQHAAVLEEGVLDPKSTIVAIFPSPMLYAGPTEVQWHCRSRMIAGANFYIVGRDPAGMPHPETKKDLYEPTHGGKVLSMAPGLTSVEIIPFRVAAYNKAKKAMDFYDPARHNEFDFISGTRMRKLAREGENPPDGFMAPKAWKVLTDYYRSLEKN
% WT activity (PAPSS2 [1]): 37.1 ± 6.9% | decrease in enzyme activity compared with the wild type enzyme (PAPSS2 [1]): 62.9% | activity relative to the reference PAPSS2 (in words) (PAPSS2 [1]): reduced activity | S50 for ATP (ATP concentration at which 50% maximal velocity was achieved) (PAPSS2 [2]; ATP varied 0.125-4 mM, Na2SO4 4 mM): 0.95 mM and 0.95 ± 0.02 mM | Km (PAPSS2 [2]; apparent Km, Na2SO4 varied 0.125-16 mM, ATP 1 mM): 3000 µM | Vmax/S50, ATP (PAPSS2 [2]; ratio, wild type = 100, ATP as varied substrate): 27.8 ± 3.3 | Vmax, ATP (PAPSS2 [2]; relative Vmax, wild type = 100, ATP as varied substrate): 37 ± 3.9 | Vmax, Na2SO4 (PAPSS2 [2]; relative Vmax, wild type = 100, Na2SO4 as varied substrate): 45 ± 2.4 | activity reduced compared with wild type (PAPSS2 [3]): 57.4%

B2: Glu10Lys: PAPSS2 polypeptide allozyme having a lysine at amino acid residue 10 in place of glutamic acid (adenine at nucleotide 28) (protein)
chain: MSGIKKQKTKNQQKSTNVVYQAHHVSRNKRGQVVGTRGGFRGCTVWLTGLSGAGKTTISFALEEYLVSHAIPCYSLDGDNVRHGLNRNLGFSPGDREENIRRIAEVAKLFADAGLVCITSFISPFAKDRENARKIHESAGLPFFEIFVDAPLNICESRDVKGLYKRARAGEIKGFTGIDSDYEKPETPERVLKTNLSTVSDCVHQVVELLQEQNIVPYTIIKDIHELFVPENKLDHVRAEAETLPSLSITKLDLQWVQVLSEGWATPLKGFMREKEYLQVMHFDTLLDDGVINMSIPIVLPVSAEDKTRLEGCSKFVLAHGGRRVAILRDAEFYEHRKEERCSRVWGTTCTKHPHIKMVMESGDWLVGGDLQVLEKIRWNDGLDQYRLTPLELKQKCKEMNADAVFAFQLRNPVHNGHALLMQDTCRRLLERGYKHPVLLLHPLGGWTKDDDVPLDWRMKQHAAVLEEGVLDPKSTIVAIFPSPMLYAGPTEVQWHCRSRMIAGANFYIVGRDPAGMPHPETKKDLYEPTHGGKVLSMAPGLTSVEIIPFRVAAYNKAKKAMDFYDPARHNEFDFISGTRMRKLAREGENPPDGFMAPKAWKVLTDYYRSLEKN
% WT activity (PAPSS2 [1]): 72.6 ± 7.2% | decrease in enzyme activity compared with the wild type enzyme (PAPSS2 [1]): 27.4% | activity relative to the reference PAPSS2 (in words) (PAPSS2 [1]): reduced activity | activity reduced compared with wild type (PAPSS2 [3]): 14.1%

B3: Arg432Lys: PAPSS2 polypeptide allozyme having a lysine at amino acid 432 in place of arginine (adenine at nucleotide 1295) (protein)
chain: MSGIKKQKTENQQKSTNVVYQAHHVSRNKRGQVVGTRGGFRGCTVWLTGLSGAGKTTISFALEEYLVSHAIPCYSLDGDNVRHGLNRNLGFSPGDREENIRRIAEVAKLFADAGLVCITSFISPFAKDRENARKIHESAGLPFFEIFVDAPLNICESRDVKGLYKRARAGEIKGFTGIDSDYEKPETPERVLKTNLSTVSDCVHQVVELLQEQNIVPYTIIKDIHELFVPENKLDHVRAEAETLPSLSITKLDLQWVQVLSEGWATPLKGFMREKEYLQVMHFDTLLDDGVINMSIPIVLPVSAEDKTRLEGCSKFVLAHGGRRVAILRDAEFYEHRKEERCSRVWGTTCTKHPHIKMVMESGDWLVGGDLQVLEKIRWNDGLDQYRLTPLELKQKCKEMNADAVFAFQLRNPVHNGHALLMQDTCRRLLEKGYKHPVLLLHPLGGWTKDDDVPLDWRMKQHAAVLEEGVLDPKSTIVAIFPSPMLYAGPTEVQWHCRSRMIAGANFYIVGRDPAGMPHPETKKDLYEPTHGGKVLSMAPGLTSVEIIPFRVAAYNKAKKAMDFYDPARHNEFDFISGTRMRKLAREGENPPDGFMAPKAWKVLTDYYRSLEKN
% WT activity (PAPSS2 [1]): 104.8% and 104.8 ± 10.1% | activity relative to the reference PAPSS2 (in words) (PAPSS2 [1]): activity that is comparable to the reference PAPSS2

B4: Met281Leu: PAPSS2 polypeptide allozyme having a leucine at amino acid residue 281 in place of methionine (thymine at nucleotide 841) (protein)
chain: MSGIKKQKTENQQKSTNVVYQAHHVSRNKRGQVVGTRGGFRGCTVWLTGLSGAGKTTISFALEEYLVSHAIPCYSLDGDNVRHGLNRNLGFSPGDREENIRRIAEVAKLFADAGLVCITSFISPFAKDRENARKIHESAGLPFFEIFVDAPLNICESRDVKGLYKRARAGEIKGFTGIDSDYEKPETPERVLKTNLSTVSDCVHQVVELLQEQNIVPYTIIKDIHELFVPENKLDHVRAEAETLPSLSITKLDLQWVQVLSEGWATPLKGFMREKEYLQVLHFDTLLDDGVINMSIPIVLPVSAEDKTRLEGCSKFVLAHGGRRVAILRDAEFYEHRKEERCSRVWGTTCTKHPHIKMVMESGDWLVGGDLQVLEKIRWNDGLDQYRLTPLELKQKCKEMNADAVFAFQLRNPVHNGHALLMQDTCRRLLERGYKHPVLLLHPLGGWTKDDDVPLDWRMKQHAAVLEEGVLDPKSTIVAIFPSPMLYAGPTEVQWHCRSRMIAGANFYIVGRDPAGMPHPETKKDLYEPTHGGKVLSMAPGLTSVEIIPFRVAAYNKAKKAMDFYDPARHNEFDFISGTRMRKLAREGENPPDGFMAPKAWKVLTDYYRSLEKN
% WT activity (PAPSS2 [1]): 107.7% and 107.7 ± 2.9% | activity relative to the reference PAPSS2 (in words) (PAPSS2 [1]): activity that is comparable to the reference PAPSS2
